Assay results from patent US20090155285A1 (Eli Lilly, published 2009).
Residue numbers refer to the chain shown, from its start.

T1: mature human TGF-β3 (human, UniProt P10600 301-412)
T1 sequence: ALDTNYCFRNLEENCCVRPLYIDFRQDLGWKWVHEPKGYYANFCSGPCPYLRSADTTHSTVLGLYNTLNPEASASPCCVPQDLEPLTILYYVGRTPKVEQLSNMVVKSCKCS

T2: mature human TGF-β2 (human, UniProt P61812 303-414)
T2 sequence: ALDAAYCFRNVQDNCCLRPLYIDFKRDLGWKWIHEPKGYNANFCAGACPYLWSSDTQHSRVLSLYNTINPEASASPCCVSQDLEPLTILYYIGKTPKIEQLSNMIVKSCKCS

B1: Fab 3.A (Fab, V domains shown)
VH: QVQLVQSGAEVKKPGASVKVSCKASGYTFTSYWMNWVRQAPGQGLEWMGQIFPASGSTNYGEMFEGRVTMTTDTSTSTAYMELRSLRSDDTAVYYCARGIGNYALDAMDYWGQGTLVTVSS
VL: DIQMTQSPSSLSASVGDRVTITCRASESVDFWGNSFMHWYQQKPGKAPKLLIYLASNLESGVPSRFSGSGSGTDFTLTISSLQPEDFATYYCQQNIEDPLTFGGGTKVEIKR
notes: The mAb was made by linking the Fab to an IgG4 Fc region, so the mAb's chains are named; The heavy chain entry also holds the Fc, which is not in the Fab
B2: Fab 4.17 (Fab, V domains shown)
VH: B1 VH with A54F, G61N
VL: B1 VL with I96A
notes: as for B1
B3: Fab 12.4 (Fab, V domains shown)
VH: B1 VH with S55L
VL: B1 VL with F31W
notes: as for B1
B4: Fab 12.7 (Fab, V domains shown)
VH: B1 VH with Y32E, S55L, G61N, F64Y
VL: B1 VL with W32Y
notes: as for B1
B5: Fab 12.8 (Fab, V domains shown)
VH: B1 VH with S55L, G61N
VL: B1 VL with F31W, W32Y, L54Y, I96A
notes: as for B1
B6: 1D11.16 (antibody, from another filing, V domains shown)
VH: QVQLQQSGPELVRPGASVKLSCKASGYIFITYWMNWVKQRPGQGLEWIGQIFPASGSTNYNEMFEGKATLTVDTSSSTAYMQLSSLTSEDSAVYYCARGDGNYALDAMDYWGQGTSVTVSS
VL: DIVLTQSPASLAVSLGQRATISCRASESVDSYGNSFMHWYQQKSGQPPKLLIYLASNLESGVPARFSGSGSRTDFTLTIDPVEADDAATYYCQQNNEDPLTFGAGTKLEIK
B7: mAb 12.4 (antibody, human IgG4 S228P, kappa, V domains shown)
VH: B1 VH with S55L
VL: B1 VL with F31W
notes: Full-length monoclonal antibody, made by linking the Fab to an IgG4 Fc region
B8: mAb 3.A (antibody, human IgG4 S228P, kappa, V domains shown)
VH: B1 VH
VL: B1 VL
notes: as for B7
B9: mAb 4.17 (antibody, human IgG4 S228P, kappa, V domains shown)
VH: B1 VH with A54F, G61N
VL: B1 VL with I96A
notes: as for B7
B10: mAb 12.7 (antibody, human IgG4 S228P, kappa, V domains shown)
VH: B1 VH with Y32E, S55L, G61N, F64Y
VL: B1 VL with W32Y
notes: as for B7
B11: mAb 12.8 (antibody, human IgG4 S228P, kappa, V domains shown)
VH: B1 VH with S55L, G61N
VL: B1 VL with F31W, W32Y, L54Y, I96A
notes: as for B7

target: T3, mature human TGF-β1 (human, UniProt P01137 279-390); experiment: KinExA 3000, solution phase, antigen-coupled beads
T3 construct: Bought protein (R&D Systems, Cat # 240-B/CF); also called TGF Beta 1; TGF-b1
Procedure: (§1) A KinExA 3000 instrument (Sapidyne Inst. Inc.) measures binding kinetics. Briefly, antigen is covalently-coupled to azlactone beads and the binding of an invention free Fab to the beads is detected on the instrument. […] After incubation, free Fab in each equilibrated sample is determined on KinExA 3000 per manufacturer instructions. Kd values are determined using KinExA 3000 software. To measure kₒₙ, individual Fabs at 2 nM are mixed with 0-240 nM of antigen using the injection method according to manufacturer's instructions, and the unbound Fab is detected. The resulting data is used to calculate the kₒₙ with KinExA 3000 software. The koff is calculated using the formula K_{d=k}off/kₒₙ. Affinity data obtained under KinExA© conditions for Fab embodiments binding TGF Beta 1 are shown below in Table 1.

T3 sequence (P01137 279-390 limits assumed): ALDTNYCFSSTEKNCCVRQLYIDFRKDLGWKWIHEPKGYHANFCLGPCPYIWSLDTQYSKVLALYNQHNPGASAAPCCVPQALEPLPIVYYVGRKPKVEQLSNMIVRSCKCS

B1 and B2 are within 1.5-fold of each other in kon: 2.1e+07 M⁻¹ s⁻¹ for the first, 2.2e+07 M⁻¹ s⁻¹ for the second.

Compared with B3, B4 is 9.2-fold lower in kon: 3.4e+07 M⁻¹ s⁻¹ for the first, 3.7e+06 M⁻¹ s⁻¹ for the second.

B5 was tested, and the kon was 2.6e+07 M⁻¹ s⁻¹.

target: T1, mature human TGF-β3; experiment: cell-based or functional assay

First: B6
Second: B7
The HT-2 cell neutralization assay, IC50 (Mean ng/ml) of the first is 19-fold higher: 100 ng/mL for the first, 5.22 ng/mL for the second.

B8 and B9 are within 1.5-fold of each other in HT-2 cell neutralization assay, IC50 (Mean ng/ml): 16.9 ng/mL for the first, 15.8 ng/mL for the second.

B10 was tested, and the “HT-2 cell neutralization assay, IC50 (Mean ng/ml)” value (“HT-2 cell neutralization assay” for short) was 6.78 ng/mL.

target: T3, mature human TGF-β1; experiment: cell-based or functional assay

Compared with B6, B7 is 490-fold lower in HT-2 cell neutralization assay, IC50 (Mean ng/ml): 215 ng/mL for the first, 0.44 ng/mL for the second.

Compared with B8, B9 is 6.2-fold lower in HT-2 cell neutralization assay, IC50 (Mean ng/ml): 2.62 ng/mL for the first, 0.42 ng/mL for the second.

In the case of B10, the “HT-2 cell neutralization assay” value is reported as 0.59 ng/mL.

target: T2, mature human TGF-β2; experiment: cell-based or functional assay

Going from B6 to B7, the HT-2 cell neutralization assay, IC50 (Mean ng/ml) falls from 574 ng/mL to 6.14 ng/mL (93-fold).

Compared with B8, B9 is 14-fold lower in HT-2 cell neutralization assay, IC50 (Mean ng/ml): 51.4 ng/mL for the first, 3.65 ng/mL for the second.

For B10, the “HT-2 cell neutralization assay” value was 3.34 ng/mL.

target: T3, mature human TGF-β1; experiment: KinExA 3000, equilibrium in solution
Procedure: as §1

First: B1
Second: B2
The Kd of the first is 54-fold higher: 15 pM for the first, 0.28 pM for the second.

Going from B3 to B4, the Kd falls from 1.55 pM to 0.09 pM (17-fold).

For B5, the Kd was 0.22 pM.

target: T1, mature human TGF-β3; experiment: BIAcore 2000 SPR, antibody captured on Protein A, TGF-β injected
Procedure: (§2) Alternate methods of measuring kinetic constants are known, for example: affinity of an invention antibody for TGF-β1 (R&D Systems, Cat # 240-B/CF), TGF-β2 (RDI, Cat #RDI-1035), and TGF-β3 (RDI, Cat # RDI-1036/CF) is measured by BIAcore® 2000. Binding affinity measurements for full-length monoclonal antibodies of the invention are determined using Biacore. Except as noted, all reagents and materials are purchased from BIAcore® AB (Upsala, Sweden). All measurements made at room temperature. Samples are dissolved in HBS-EP buffer (150 mM sodium chloride, 3 mM EDTA, 0.01% (w/v) surfactant P-20, and 10 mM HEPES, pH 7.4). Recombinant Protein A is immobilized on all four flow cells of a CM4 sensor chip at a level of 400-450 response units (RUs) using an amine coupling kit. Binding is evaluated using multiple analytical cycles. Each cycle is performed at a flow rate of 50 μL/min consisting of the steps: injection of 12 μL of antibody at 0.5 μg/mL, injection of 250 μL of TGF-β1 (starting at 5 nM and using two-fold serial dilutions to 0.13 nM for each cycle, with two injections for each concentration) followed by either a short (5 min) or long (120 min) delay for dissociation, and regeneration using two injections of 50 μL of 10 mM glycine hydrochloride, pH 1.5. Association and dissociation rates per cycle are made by fitting the biosensor data from a simple association model using ClampXP (Center for Biomolecular Interaction Analysis, Univ. of Utah) to extract the kₒₙ and koff rate constants; the equilibrium binding constant Kd is calculated from Kd=koff/kₒₙ.
(§3) When mAbs are measured using the described assay, the results are as stated in Table 2 below.

B7 and B8 are within 1.5-fold of each other in Kd: 0.851 pM for the first, 0.926 pM for the second.

Going from B9 to B10, the Kd falls from 1.53 pM to 0.82 pM (1.9-fold).

Binder B11 has a Kd of 0.54 pM.

First: B7
Second: B8
The koff of the first is 1.6-fold lower: 1.53e-05 s⁻¹ for the first, 2.38e-05 s⁻¹ for the second.

First: B9
Second: B10
The koff of the first is 2.2-fold higher: 2.84e-05 s⁻¹ for the first, 1.28e-05 s⁻¹ for the second.

Binder B11 has a koff of 1.12e-05 s⁻¹.

Compared with B7, B8 is 1.6-fold higher in kon: 1.76e+07 M⁻¹ s⁻¹ for the first, 2.9e+07 M⁻¹ s⁻¹ for the second.

B9 and B10 are within 1.5-fold of each other in kon: 2.17e+07 M⁻¹ s⁻¹ for the first, 1.56e+07 M⁻¹ s⁻¹ for the second.

B11 was tested, and the kon was 1.85e+07 M⁻¹ s⁻¹.

target: T3, mature human TGF-β1; experiment: as above
Procedure: as §2, §3

B7 and B8 cannot be ordered by Kd: less than 0.2 pM for the first, less than 2 pM for the second.

B9 and B10 cannot be ordered by Kd: less than 0.2 pM for the first, less than 0.2 pM for the second.

For B11, the Kd was less than 0.2 pM.

Compared with B7, B8 is 16-fold higher in koff: 6.71e-06 s⁻¹ for the first, 0.000107 s⁻¹ for the second.

B9 and B10 are within 1.5-fold of each other in koff: 9.71e-06 s⁻¹ for the first, 7.93e-06 s⁻¹ for the second.

With B11 the koff was 7.92e-06 s⁻¹.

B7 and B8 cannot be ordered by kon: greater than 4e+07 M⁻¹ s⁻¹ for the first, greater than 5e+07 M⁻¹ s⁻¹ for the second.

B9 and B10 cannot be ordered by kon: greater than 5e+07 M⁻¹ s⁻¹ for the first, greater than 5e+07 M⁻¹ s⁻¹ for the second.

In the case of B11, the kon is reported as greater than 5e+07 M⁻¹ s⁻¹.

target: T2, mature human TGF-β2; experiment: as above
Procedure: as §2, §3

B7 and B8 cannot be ordered by Kd: 0.265 pM for the first, less than 4 pM for the second.

B9 and B10 are within 1.5-fold of each other in Kd: 0.529 pM for the first, 0.473 pM for the second.

B11 showed a Kd of 1 pM.

First: B7
Second: B8
The koff of the first is 36-fold lower: 6e-06 s⁻¹ for the first, 0.000218 s⁻¹ for the second.

B9 and B10 are within 1.5-fold of each other in koff: 9.86e-06 s⁻¹ for the first, 1.11e-05 s⁻¹ for the second.

For B11, the koff was 1.22e-05 s⁻¹.

First: B7
Second: B8
The kon of the first is lower: 2.42e+07 M⁻¹ s⁻¹ for the first, greater than 5e+07 M⁻¹ s⁻¹ for the second.

B9 and B10 are within 1.5-fold of each other in kon: 2.37e+07 M⁻¹ s⁻¹ for the first, 2.8e+07 M⁻¹ s⁻¹ for the second.

B11 showed a kon of 2.29e+07 M⁻¹ s⁻¹.

target: T3, mature human TGF-β1; experiment: KinExA 3000, calculated from Kd and kon
Procedure: as §1

Going from B1 to B2, the koff falls from 0.00031 s⁻¹ to 6e-06 s⁻¹ (52-fold).

Going from B3 to B4, the koff falls from 5.2e-05 s⁻¹ to 3.4e-07 s⁻¹ (150-fold).

For B5, the koff was 5.5e-06 s⁻¹.
